Among the data in patent publication US20260116971A1 (published 2026) are EC50 values, retold here.

Substitutions are numbered along the chain they refer to.

Experiment [1] deals with T1, Chlorocebus (African green monkey) Nectin-2 (Chlorocebus (African green monkey)).
T1 chain: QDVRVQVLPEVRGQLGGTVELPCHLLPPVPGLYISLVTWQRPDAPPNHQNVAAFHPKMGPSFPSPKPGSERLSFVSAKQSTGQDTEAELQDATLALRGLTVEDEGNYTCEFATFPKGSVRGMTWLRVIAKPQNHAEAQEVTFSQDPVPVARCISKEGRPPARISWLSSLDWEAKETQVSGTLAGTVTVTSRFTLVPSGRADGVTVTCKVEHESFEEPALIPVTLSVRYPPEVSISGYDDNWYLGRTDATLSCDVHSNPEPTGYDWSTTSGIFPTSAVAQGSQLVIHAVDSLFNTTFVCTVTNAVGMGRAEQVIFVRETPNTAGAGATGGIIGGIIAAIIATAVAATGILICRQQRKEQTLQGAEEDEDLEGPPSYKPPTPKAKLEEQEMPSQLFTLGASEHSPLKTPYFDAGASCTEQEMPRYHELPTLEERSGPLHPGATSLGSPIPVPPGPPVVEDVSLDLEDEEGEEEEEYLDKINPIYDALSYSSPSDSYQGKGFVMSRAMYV
The experiment can be described thus: FACS binding; Vero cells. (In general: In flow cytometry, cells or beads pass a laser one at a time.)

Experiment [2] deals with T2, cynomolgus (Cyno) monkey (Macaca fascicularis) Nectin-2 (cynomolgus monkey (Macaca fascicularis), UniProt A0A2K5U084 32-538).
T2 chain: T1 chain with N47D, E70Q, G82R, I481V
Kind of experiment: FACS binding; CHO cells expressing cyno Nectin-2.

B1: anti-Nectin-2 monoclonal antibody clone 11 (antibody, V domains shown)
VH: EVQLQQSGTVLTRPGASVKMSCKASGYIFTSYWIHWVKQRPGQGLEWIGAVYPGNSDSNYNQKFKAKAKLTAVTSTSTAYMELSSLTSEDSAVYYCTKLVGTFDYWGQGTTLTVSS
VL: DIVMTQSQKFMSSSIGDRVSVTCKASQNVGINVVWYQQRAGQSPKTLIYSASYRYSGVPDRFTGSGSGTDFTLTISNVQSEDLAEYFCQQYNTNPFTFGSGTKLEIK
As a reminder, the EC50 is the concentration giving half of the maximal effect. For the molecule B1, the values for the EC50 in experiment [1] and in experiment [2] were 0.16 nM and 0.2 nM, respectively.

B2: anti-Nectin-2 monoclonal antibody clone 7 (antibody, V domains shown)
VH: DVNLVESGGGLVKPGGSLKLSCAASGFTFSRFTMSWVRQTPEKTLDWVATISSGGSYTYYPDSVKGRFTISRDNAKNTLYLQMSSLKSEDTAMYYCTRDRDFYGPYYAMDYWGQGTSVTVSS
VL: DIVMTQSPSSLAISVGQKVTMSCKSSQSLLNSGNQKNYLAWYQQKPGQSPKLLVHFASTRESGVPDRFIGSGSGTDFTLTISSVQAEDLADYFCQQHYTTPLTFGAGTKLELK
In the case of B2, the EC50 is 0.23 nM in experiment [1] and 0.66 nM in experiment [2].
